Drawing on publication PMC11513116, this text covers stoichiometry N for one substance.

Several values for one entry are separate records, joined by “and”; a condition that tells them apart may be missing. Equal values may be shown once.

For this experiment, the target named is GCSC1-GFP fusion protein (UBIpro::GCSC1-GFP) (rice (variety Lemont)). Put plainly: native gel or EMSA.

What is called stoichiometry N is the number of molecules, sites or subunits per partner or assembly. With “GCSC1-GFP fusion protein (UBIpro::GCSC1-GFP) (natural protein)”, the stoichiometry N was 2 and 4.
